# Entries after “also recorded” stand apart in the source; their conditions may differ.
# B1: 238F3: Nanobody (VHH) raised against human CXCR4, SEQ ID NO: 247 (protein)
# VHH: EVQLVESGGGLAQAGGSLRLSCAASGRTYAMGWFRQAPGKEREFVTTSRLITDNIIYADSVKGRFTLTRDNGKNTVYLQMDSLKPDDTAVYFCAARQNYSRSVFGAKDYDYWGQGTQVTVSS
# modifications: Nanobody, Nanobody constructs or fragments thereof
# B2: 238D2-15GS-238D4: heterobivalent Nanobody, 238D2 linked to 238D4 by a 15 amino acid GGGGS linker (protein)
# chain: EVQLVESGGGLVQTGGSLRLSCAASGFTFSSYAMSWVRQAPGKGLEWVSGIKSSGDSTRYAGSVKGRFTISRDNAKNMLYLQMYSLKPEDTAVYYCAKSRVSRTGLYTYDNRGQGTQVTVSSGGGGSGGGGSGGGGSEVQLMESGGGLVQAGGSLRLSCAASGRTFNNYAMGWFRRAPGKEREFVAAITRSGVRSGVSAIYGDSVKDRFTISRDNAKNTLYLQMNSLKPEDTAVYTCAASAIGSGALRRFEYDYSGQGTQVTVSS
# modifications: Nanobody, Nanobody constructs or fragments thereof
# notes: heterobivalent Nanobody, 238D2 linked to 238D4 by a 15 amino acid GGGGS linker
# Assays:
# CXCR4 [1] = biological target: T1, CXCR4 (Homo sapiens, UniProt P61073); assay: [125I]-238D4 competition binding on membranes from HEK293T cells transiently expressing CXCR4
# Experimental: (§1) HEK293T cells were maintained at 37° C. in a humidified 5% CO2, 95% air atmosphere in Dulbecco's modified Eagle's medium (DMEM) containing 2 mM L-glutamine, 50 IU/ml penicillin, 50 μg/ml streptomycin, and 10% (v/v) fetal calf serum. Jurkat cells were cultured in a humidified 5% CO2, 95% air atmosphere in a 1:1 mixture of Dulbecco's modified Eagle's medium (DMEM) and Ham's F12 medium containing 2 mM L-glutamine, 50 IU/ml penicillin, 50 μg/ml streptomycin, and 10% (v/v) fetal calf serum. […] [^125 I]-Labelling— Radiolabeling of Nanobodies with ^125I was performed using the Iodo-gen method (Pierce, Rockford, Ill.) according to the manufacturer's protocol. ^125I-labeled Nanobodies was separated from free iodine (>99%) using a Sephadex G-25 gel filtration column (Amersham Biosciences, Piscataway, N.J.). […] Competition Binding Assays— Membranes from HEK293T cells transiently expressing CXCR3 or CXCR4 were prepared 48 h after transfection as follows. Cells were washed and scraped from the cell culture dishes with ice-cold PBS containing 1 mm EDTA. The scraped cells were pelleted at 1500×g for 10 min at 4° C. The pellet was washed and then resuspended in ice-cold membrane buffer (15 mM Tris, pH 7.5, 1 mM EGTA, 0.3 mM EDTA, and 2 mM MgCl2). The cell suspension was homogenized by 10 strokes at 1200 rpm using a Teflon-glass homogenizer and rotor and further subjected to three freeze-thaw cycles using liquid nitrogen. Membranes were separated by centrifugation at 40,000 g for 25 min at 4° C. The membrane pellet was washed and resuspended in ice-cold Tris-sucrose buffer (20 mM Tris, pH 7.4, and 250 mM sucrose) and frozen in liquid nitrogen. The total protein was determined using a Bradford assay (Bio-Rad). […] Membranes were then harvested over polyethylenimine (0.5%)-treated Whatman GF/C filter plates and washed three times with ice cold binding buffer containing 500 mM NaCl. Plates were counted by liquid scintillation. Inositol Phosphate Accumulation Assay— 24 hours post transfection with pcDNA3.1-CXCR4 and pcDNA1-HA-mG {alpha} qi5 (see Verzijl et al, 2008 supra), 250.000 cells were seeded into 24-wells plates and labelled overnight using inositol-free minimal essential medium supplemented with 1 μCi myo-[2-^3H]-inositol. The next day, the cells were washed once to remove not incorporated myo-[2-^3H]-inositol. […] In agonist experiments, the cells were directly stimulated with test compounds and LiCl (10 mM) in assay buffer for 2 h at 37° C. The stimulation was stopped by aspirating the stimulation medium and adding ice-cold 10 mM formic acid. The accumulated inositol phosphates were isolated by anion exchange chromatography and counted by liquid scintillation. CRE Reporter Gene Assay— HEK239T cells were transfected with pCRE/β-galactosidase (Chen W, Shields T S, Stork P J S, Cone R D (1995) Anal Biochem 226:349-354) and plasmids (pcDEF3 or pcDNA3.1) encoding the indicated receptors. 40,000 transfected cells per well were seeded into 96 well plates and grown in DMEM supplemented with 10% fetal calf serum. The medium was replaced 32 h after transfection by serum-free DMEM supplemented with 0.5% bovine serum albumin and ligands as indicated. […] The β-galactosidase activity was determined by the measurement of absorption at 420 nm with a PowerwaveX340 plate reader (Bio-Tek Instruments Inc., Winooski, Vt.) after incubation with the assay buffer when the OD420 value for forskolin (3 μM) controls reached 0.4-0.6. Chemotaxis Assay— The chemotactic responsiveness of Jurkat 3D cells was assessed using ChemoTx™ plates (Receptor Technologies Ltd., Oxon, UK) in which a upper cell-containing compartment is separated from a lower chemoattractant-containing compartment by a polyvinylpyrollidone-free polycarbonate filter with 5-μm pores. Cells were harvested, washed and resuspended in RPMI containing 0.5% bovine serum albumin and then loaded to 150,000 cells per well in a volume of 25 μl into the upper compartment of the chemotaxis chamber.
# Target sequence in this assay (P61073 whole entry): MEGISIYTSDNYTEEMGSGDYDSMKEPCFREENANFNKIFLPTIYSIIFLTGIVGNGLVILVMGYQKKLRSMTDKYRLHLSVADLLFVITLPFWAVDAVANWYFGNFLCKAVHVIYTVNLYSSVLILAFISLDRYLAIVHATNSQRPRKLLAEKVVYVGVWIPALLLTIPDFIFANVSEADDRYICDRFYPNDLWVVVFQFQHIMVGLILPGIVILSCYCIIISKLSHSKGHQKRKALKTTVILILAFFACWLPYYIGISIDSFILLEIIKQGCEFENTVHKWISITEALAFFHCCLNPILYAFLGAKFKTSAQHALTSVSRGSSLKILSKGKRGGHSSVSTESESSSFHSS
# CXCR4 (N119A) = CXCR4 (N119A) (Homo sapiens, UniProt P61073, N119A); assay: Basal inositol phosphate accumulation in HEK293T cells expressing CXCR4 (N119A); type: cell-based
# Sequence of CXCR4 (N119A) (P61073 whole entry N119A): as the sequence (P61073 whole entry) above, with N119A counted along it
# Experimental: (§2) HEK293T cells were maintained at 37° C. in a humidified 5% CO2, 95% air atmosphere in Dulbecco's modified Eagle's medium (DMEM) containing 2 mM L-glutamine, 50 IU/ml penicillin, 50 μg/ml streptomycin, and 10% (v/v) fetal calf serum. Jurkat cells were cultured in a humidified 5% CO2, 95% air atmosphere in a 1:1 mixture of Dulbecco's modified Eagle's medium (DMEM) and Ham's F12 medium containing 2 mM L-glutamine, 50 IU/ml penicillin, 50 μg/ml streptomycin, and 10% (v/v) fetal calf serum. […] [^125 I]-Labelling— Radiolabeling of Nanobodies with ^125I was performed using the Iodo-gen method (Pierce, Rockford, Ill.) according to the manufacturer's protocol. ^125I-labeled Nanobodies was separated from free iodine (>99%) using a Sephadex G-25 gel filtration column (Amersham Biosciences, Piscataway, N.J.). […] Competition Binding Assays— Membranes from HEK293T cells transiently expressing CXCR3 or CXCR4 were prepared 48 h after transfection as follows. Cells were washed and scraped from the cell culture dishes with ice-cold PBS containing 1 mm EDTA. The scraped cells were pelleted at 1500×g for 10 min at 4° C. The pellet was washed and then resuspended in ice-cold membrane buffer (15 mM Tris, pH 7.5, 1 mM EGTA, 0.3 mM EDTA, and 2 mM MgCl2). The cell suspension was homogenized by 10 strokes at 1200 rpm using a Teflon-glass homogenizer and rotor and further subjected to three freeze-thaw cycles using liquid nitrogen. Membranes were separated by centrifugation at 40,000 g for 25 min at 4° C. The membrane pellet was washed and resuspended in ice-cold Tris-sucrose buffer (20 mM Tris, pH 7.4, and 250 mM sucrose) and frozen in liquid nitrogen. The total protein was determined using a Bradford assay (Bio-Rad). Periplasmas (1:10) or ligands were pre-incubated with membranes in binding buffer (50 mM HEPES (pH 7.4), 1 mM CaCl2, 5 mM MgCl2, 100 mM NaCl, 0.5% bovine serum albumin) supplemented with 0.5% BSA for 1 h at 22° C. before the addition of [^125I]-CXCL12 (40 pM) or [^125I]-238D2 (3 nM) or [^125I]-238D4 (3 nM) for additional 2 h at 22° C. […] Membranes were then harvested over polyethylenimine (0.5%)-treated Whatman GF/C filter plates and washed three times with ice cold binding buffer containing 500 mM NaCl. Plates were counted by liquid scintillation. Inositol Phosphate Accumulation Assay— 24 hours post transfection with pcDNA3.1-CXCR4 and pcDNA1-HA-mG {alpha} qi5 (see Verzijl et al, 2008 supra), 250.000 cells were seeded into 24-wells plates and labelled overnight using inositol-free minimal essential medium supplemented with 1 μCi myo-[2-^3H]-inositol. The next day, the cells were washed once to remove not incorporated myo-[2-^3H]-inositol. […] In agonist experiments, the cells were directly stimulated with test compounds and LiCl (10 mM) in assay buffer for 2 h at 37° C. The stimulation was stopped by aspirating the stimulation medium and adding ice-cold 10 mM formic acid. The accumulated inositol phosphates were isolated by anion exchange chromatography and counted by liquid scintillation. CRE Reporter Gene Assay— HEK239T cells were transfected with pCRE/β-galactosidase (Chen W, Shields T S, Stork P J S, Cone R D (1995) Anal Biochem 226:349-354) and plasmids (pcDEF3 or pcDNA3.1) encoding the indicated receptors. 40,000 transfected cells per well were seeded into 96 well plates and grown in DMEM supplemented with 10% fetal calf serum. The medium was replaced 32 h after transfection by serum-free DMEM supplemented with 0.5% bovine serum albumin and ligands as indicated. […]
# CXCR4 [2] = biological target: T1, CXCR4; assay: [125I]-238D2 competition binding on membranes from HEK293T cells transiently expressing CXCR4
# Experimental: as §1
# Target sequence in this assay (P61073 whole entry): as the sequence (P61073 whole entry) above
# CXCR4 [3] = biological target: T1, CXCR4; assay: [125I]-CXCL12 competition binding on membranes from HEK293T cells transiently expressing CXCR4
# Experimental: as §1
# Target sequence in this assay (P61073 whole entry): as above
# CXCR4 [4] = biological target: T1, CXCR4; assay: Phage ELISA binding assay on CHO-CXCR4 versus CHO membranes; set-up: expressed in transfected cells; host or cells: CHO cells (membrane preparation); conditions: monoclonal phages, CHO-CXCR4 vs CHO membranes
# Experimental: FIG. 2. Results from Phage ELISA (as described in example 1.5).
# In order to determine binding specificity of the Nanobodies, 15 ul of the produced phage were tested in an Phage ELISA binding assay.
# In short, 2 ug in 100 ul PBS of membrane expressing either CXCR4 (CHO-CXCR4) or a non relevant GPCR(CHO) were coated directly on Maxisorp microtiter plates (Nunc) overnight at 4 C. Free binding sites were blocked using 4% Marvel in PBS for 1 h. Next, 15 ul of monoclonal phages was added in 100 ul 1% Marvel PBS for 2 hours. […] Binding specificity (binding to CHO-CXCR4) was determined based on OD values compared to controls (binding to CHO).
# Target sequence in this assay (P61073 with tags, fused parts or gaps isoform P61073-2 limits assumed): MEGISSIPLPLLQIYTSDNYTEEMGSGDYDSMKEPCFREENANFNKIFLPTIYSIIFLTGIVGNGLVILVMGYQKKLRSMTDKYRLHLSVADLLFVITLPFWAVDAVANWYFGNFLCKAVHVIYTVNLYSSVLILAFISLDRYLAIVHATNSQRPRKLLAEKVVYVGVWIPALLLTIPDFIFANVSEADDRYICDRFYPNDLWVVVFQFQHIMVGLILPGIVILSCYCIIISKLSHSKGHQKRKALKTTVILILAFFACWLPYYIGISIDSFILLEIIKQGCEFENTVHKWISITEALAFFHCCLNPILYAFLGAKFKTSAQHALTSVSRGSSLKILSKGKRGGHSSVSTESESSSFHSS
# [5] = tested on: Jurkat cells endogenously expressing CXCR4; assay: Chemotaxis assay (ChemoTx plates) with Jurkat cells towards CXCL12; type: cell-based
# Experimental: as §2, with “indicated. Following 16 h of ligand incubation, the medium was removed, the cells were lysed in 100 μl of assay buffer (100 mM sodium phosphate buffer at pH 8.0, 4 mM 2-nitrophenol-β-D-pyranoside, 0.5% Triton X-100, 2 mM MgSO4, 0.1 mM MnCl2, and 40 mM β-mercaptoethanol) and incubated at room temperature.” for “indicated.”
# [6] = membranes from HEK293T cells transiently expressing CXCR4, mean ± S.E.M.
molecule,measurement,setting,value
"c1cc(CN2CCCNCCNCCCNCC2)ccc1CN1CCCNCCNCCCNCC1 [AMD3100, reference compound]",displacement of [125I]-238D4 from CXCR4,CXCR4 [1]; [125I]-238D4 3 nM,displaces
same,Displacem. (%) of [125I]-238D4 (maximal displacement),CXCR4 [1]; [6],99 ± 4%
same,functional profile at CXCR4 (N119A),"CXCR4 (N119A); ligand-induced alteration of basal inositol phosphate accumulation, listed as plerixafor",neutral antagonist; also recorded: Neither significant agonistic nor inverse antagonistic activity
same,effect on the nanobody-induced reduction of basal inositol phosphate accumulation,"CXCR4 (N119A); with 238D4, L3 and L8",antagonized
same,displacement of [125I]-238D2 from CXCR4,CXCR4 [2]; [125I]-238D2 3 nM,displaces
same,Displacem. (%) of [125I]-238D2 (maximal displacement),CXCR4 [2]; [6],102 ± 1%
same,Displacem. (%) of [125I]-CXCL12 (maximal displacement),CXCR4 [3]; [6],94 ± 2%
"CXCL12: stromal-derived-factor-1, the natural (endogenous) ligand for CXCR4 [reference compound]",stimulation of the mutant receptor,CXCR4 (N119A); inositol phosphate accumulation,0.4 fold over basal
B1,specificity toward CXCR4 expressing membrane compared to non-expressing membrane,CXCR4 [4],high specificity
B2,inhibition of migration of Jurkat cells towards CXCL12,[5]; 300 pM CXCL12,fully antagonized
same,"Imax (%), Chemotaxis, bivalent Nanobodies","[5]; Jurkat/0.3 nM CXCL12, mean ± S.E.M.",107 ± 5%
same,"pKi, antagonism of the chemoattractant effects of CXCL12",[5]; n=3,9.86±0.04
same,"Rel. potency, relative to monovalent 238D2","CXCR4 [3]; [125I]-CXCL12 displacement, potency relative to those of monovalent 238D2",28
same,"Rel. potency, relative to monovalent 238D4","CXCR4 [3]; [125I]-CXCL12 displacement, potency relative to those of monovalent 238D4",17
same,"Displacem. (%) of [125I]-CXCL12 (maximal displacement), bivalent Nanobodies",CXCR4 [3]; [6],92 ± 6%
same,"pKi, [125I]-CXCL12, bivalent Nanobodies",CXCR4 [3]; [6],9.45 ± 0.09

# From patent US9212226B2, “Amino acid sequences directed against CXCR4 and other GPCRs and compounds comprising the same” (Ablynx N.V., priority 2008, dated 2015)
